Laboratory results: the supplement of paper PMC10567573

B1: ZNF449 (parent)
chain: QLTGHQRIHSGEEPHKCPECGKRF
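Further: lentivirally expressed fusions sorted by FACS into six bins by GFP to DsRed ratio, PSI derived from sequencing read proportions per bin multiplied by bin number.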

Variants of: B1
Assay: protein stability index of a GFP-peptide fusion (GPS, HEK-293T) (PSI 1-6); higher = more stable
Details: c terminus: a fixed tail appended
QLTGHQRIHSGEEPHKCPESGKRF gave a protein stability index of 4.37. Work on QLTGHQRIHSGEEPHKCPEAGKRF yielded a protein stability index of 4.35. In the case of QLTGHQRIHSGEEPHKCPEEGKRF, the protein stability index is reported as 5.41. QLTGHQRIHSGEEPHKCPEWGKRF showed a protein stability index of 4.34. Variant TLTGHQRIHSGEEPHKCPECGKRF has a protein stability index of 4.31. Work on WLTGHQRIHSGEEPHKCPECGKRF yielded a protein stability index of 2.03. With QLTYHQRIHSGEEPHKCPECGKRF the protein stability index was 3.95. For QLTLHQRIHSGEEPHKCPECGKRF, the protein stability index was 3.83. QLTFHQRIHSGEEPHKCPECGKRF gave a protein stability index of 3.5. Work on QLPGHQRIHSGEEPHKCPECGKRF yielded a protein stability index of 4.61. In the case of QLSGHQRIHSGEEPHKCPECGKRF, the protein stability index is reported as 2.94. For QLHGHQRIHSGEEPHKCPECGKRF, the protein stability index was 4.45. For QLMGHQRIHSGEEPHKCPECGKRF, the protein stability index was 4.15. QLEGHQRIHSGEEPHKCPECGKRF gave a protein stability index of 4.59. Work on QLTGHQRIHSGEEPHKCAECGKRF yielded a protein stability index of 3.92. QLTGHQRIHSGEEPHKCGECGKRF gave a protein stability index of 4.21. QLTGHQRIHSGEEPHKCRECGKRF gave a protein stability index of 4.4. In the case of QLTGHQRIHSGEEPHKCLECGKRF, the protein stability index is reported as 3.92. With QLTGHQRIHSGEEPHKCFECGKRF the protein stability index was 3.41. In the case of QLTGHQRIHSAEEPHKCPECGKRF, the protein stability index is reported as 4.64. QLTGHQRIHSREEPHKCPECGKRF gave a protein stability index of 4.14. In the case of QLTGHQRIHSLEEPHKCPECGKRF, the protein stability index is reported as 3.87. QLTGHQRIHSGEEPHKCPECSKRF showed a protein stability index of 4.32. With QLTGHQRIHSGEEPHKCPECHKRF the protein stability index was 4.08. In the case of QLTGHQRIHSGEEPHKCPECMKRF, the protein stability index is reported as 4.53. For QLTGHQRIHSGEEPHKCPECKKRF, the protein stability index was 4.41. QLTGHQRIHSGEEPHKCPECRKRF showed a protein stability index of 4.34. QLTGHQRIHSGEEPHKCPICGKRF gave a protein stability index of 3.37. QLTGHQRIHSGEEPHKCPMCGKRF gave a protein stability index of 4.05. Work on QLTGHQRIHSGEEPHKCPFCGKRF yielded a protein stability index of 3.69. With QLTGHQRIHSGEEPHKCPGCGKRF the protein stability index was 3.09. With QLTGHQRIHSGEEPHKCPYCGKRF the protein stability index was 3.95. QLTGHQRNHSGEEPHKCPECGKRF gave a protein stability index of 4.24. Work on QLTGHQRPHSGEEPHKCPECGKRF yielded a protein stability index of 3.71. QLTGGQRIHSGEEPHKCPECGKRF showed a protein stability index of 4.45. With QLTGPQRIHSGEEPHKCPECGKRF the protein stability index was 4.48. QLTGEQRIHSGEEPHKCPECGKRF showed a protein stability index of 4.56. Work on QLTGFQRIHSGEEPHKCPECGKRF yielded a protein stability index of 2.94. With QLTGHQRIHSGEEPHKCPECGKPF the protein stability index was 4.28. In the case of QLTGHQRIHSGEEPHKCPECGKKF, the protein stability index is reported as 5.28. In the case of QLTGHQRIHSGEEPHKCPECGKHF, the protein stability index is reported as 4.23. In the case of QLTGHQRIHSGEEPHKCPECGKWF, the protein stability index is reported as 3.92. For QLTGHQRIHSGEEPHKCPECGKSF, the protein stability index was 4.83. QLTGHQRIHSGEEPHKCPECGKMF gave a protein stability index of 4.06. Variant QLTGHWRIHSGEEPHKCPECGKRF has a protein stability index of 3.05. With QLTGHIRIHSGEEPHKCPECGKRF the protein stability index was 3. Work on QLTGHARIHSGEEPHKCPECGKRF yielded a protein stability index of 4.67. QLTGHQVIHSGEEPHKCPECGKRF showed a protein stability index of 3.78. Work on QLTGHQCIHSGEEPHKCPECGKRF yielded a protein stability index of 5.01. QLTGHQRIHSGREPHKCPECGKRF showed a protein stability index of 4.01. QLTGHQRIHSGQEPHKCPECGKRF showed a protein stability index of 3.29. Work on QLTGHQRIHSGEEPHVCPECGKRF yielded a protein stability index of 4.58. With QLTGHQRIHSGEEPHECPECGKRF the protein stability index was 4.69. Variant QLTGHQRIHSGEEPHWCPECGKRF has a protein stability index of 4.14. Variant QLTGHQRIHSGEEPHPCPECGKRF has a protein stability index of 4.23. In the case of QLTGHQRIHSGEEPHKMPECGKRF, the protein stability index is reported as 4.72. Variant QLTGHQRIHSGEEPHKFPECGKRF has a protein stability index of 4.6. QLTGHQRIHSGEEPHKRPECGKRF gave a protein stability index of 4.36. With QLTGHQRIHSGEEPHKGPECGKRF the protein stability index was 3.56. With QLTGHQRIHSGEWPHKCPECGKRF the protein stability index was 3.57. In the case of QLTGHQRIHSGEPPHKCPECGKRF, the protein stability index is reported as 4.1. QLTGHQRIHSGEKPHKCPECGKRF gave a protein stability index of 4.59. In the case of QLTGHQRIHSGEEPHKCPECGWRF, the protein stability index is reported as 3.6. With QLTGHQRIHSGEEPHKCPECGMRF the protein stability index was 4.43. For QLTGHQRIHSGEEPHKCPECGYRF, the protein stability index was 4.3. QLTGHQRIHSGEEPHKCPECGCRF showed a protein stability index of 4.2. In the case of QLTGHQRIHSGEEPHKCPECGDRF, the protein stability index is reported as 4.49. Variant QLTGHQRIHSGEEPHKCPECGSRF has a protein stability index of 4.71. For QLTGHQRIHSGEEHHKCPECGKRF, the protein stability index was 3.88. Work on QLTGHQRIHSGEEGHKCPECGKRF yielded a protein stability index of 4.5. For QLTGHQRIHSGEELHKCPECGKRF, the protein stability index was 3.7. Work on QLTGHQRIHSGEECHKCPECGKRF yielded a protein stability index of 4.22. Variant QLTGHQRIHSGEEIHKCPECGKRF has a protein stability index of 4.5. In the case of QLTGHQRIHSGEERHKCPECGKRF, the protein stability index is reported as 3.75. With QLTGHQRIHSGEENHKCPECGKRF the protein stability index was 4.49. With QLTGHQRIHSGEEPYKCPECGKRF the protein stability index was 4.3. QLTGHQRIHSGEEPQKCPECGKRF showed a protein stability index of 4.31. QLTGHQRIHSGEEPRKCPECGKRF gave a protein stability index of 3.76. With QLTGHQRIHSGEEPTKCPECGKRF the protein stability index was 4.52. QLTGHQRIHSGEEPKKCPECGKRF showed a protein stability index of 3.66. QLTGHQRIHSGEEPVKCPECGKRF showed a protein stability index of 2.18. For QLTGHQRIHSGEEPIKCPECGKRF, the protein stability index was 4.8. For QLTGHQRIHSGEEPNKCPECGKRF, the protein stability index was 4.52. For QETGHQRIHSGEEPHKCPECGKRF, the protein stability index was 4.71. Variant QMTGHQRIHSGEEPHKCPECGKRF has a protein stability index of 4.86. Work on QYTGHQRIHSGEEPHKCPECGKRF yielded a protein stability index of 3.66. In the case of QTTGHQRIHSGEEPHKCPECGKRF, the protein stability index is reported as 4.64. Variant QPTGHQRIHSGEEPHKCPECGKRF has a protein stability index of 4.89. QITGHQRIHSGEEPHKCPECGKRF gave a protein stability index of 3.1. For QQTGHQRIHSGEEPHKCPECGKRF, the protein stability index was 5.16. For QVTGHQRIHSGEEPHKCPECGKRF, the protein stability index was 4.65. QLTGHQRIKSGEEPHKCPECGKRF gave a protein stability index of 3.81. In the case of QLTGHQRIRSGEEPHKCPECGKRF, the protein stability index is reported as 3.54. With QLTGHQRIHSGEEPHKCPECGKRY the protein stability index was 4.58.
